# T1: cynomolgus monkey MST1R with N-terminal Flag tag, expressed on HEK293T cells (cynomolgus monkey, UniProt Q04912 27-1400 (human entry))
# T1 construct: ORF cloned excluding the signal peptide region; also called cynomolgus MST1R; not shown: N-terminal Flag tag from vector pFLAG-myc-CMV-19 (Sigma)
# T1 chain: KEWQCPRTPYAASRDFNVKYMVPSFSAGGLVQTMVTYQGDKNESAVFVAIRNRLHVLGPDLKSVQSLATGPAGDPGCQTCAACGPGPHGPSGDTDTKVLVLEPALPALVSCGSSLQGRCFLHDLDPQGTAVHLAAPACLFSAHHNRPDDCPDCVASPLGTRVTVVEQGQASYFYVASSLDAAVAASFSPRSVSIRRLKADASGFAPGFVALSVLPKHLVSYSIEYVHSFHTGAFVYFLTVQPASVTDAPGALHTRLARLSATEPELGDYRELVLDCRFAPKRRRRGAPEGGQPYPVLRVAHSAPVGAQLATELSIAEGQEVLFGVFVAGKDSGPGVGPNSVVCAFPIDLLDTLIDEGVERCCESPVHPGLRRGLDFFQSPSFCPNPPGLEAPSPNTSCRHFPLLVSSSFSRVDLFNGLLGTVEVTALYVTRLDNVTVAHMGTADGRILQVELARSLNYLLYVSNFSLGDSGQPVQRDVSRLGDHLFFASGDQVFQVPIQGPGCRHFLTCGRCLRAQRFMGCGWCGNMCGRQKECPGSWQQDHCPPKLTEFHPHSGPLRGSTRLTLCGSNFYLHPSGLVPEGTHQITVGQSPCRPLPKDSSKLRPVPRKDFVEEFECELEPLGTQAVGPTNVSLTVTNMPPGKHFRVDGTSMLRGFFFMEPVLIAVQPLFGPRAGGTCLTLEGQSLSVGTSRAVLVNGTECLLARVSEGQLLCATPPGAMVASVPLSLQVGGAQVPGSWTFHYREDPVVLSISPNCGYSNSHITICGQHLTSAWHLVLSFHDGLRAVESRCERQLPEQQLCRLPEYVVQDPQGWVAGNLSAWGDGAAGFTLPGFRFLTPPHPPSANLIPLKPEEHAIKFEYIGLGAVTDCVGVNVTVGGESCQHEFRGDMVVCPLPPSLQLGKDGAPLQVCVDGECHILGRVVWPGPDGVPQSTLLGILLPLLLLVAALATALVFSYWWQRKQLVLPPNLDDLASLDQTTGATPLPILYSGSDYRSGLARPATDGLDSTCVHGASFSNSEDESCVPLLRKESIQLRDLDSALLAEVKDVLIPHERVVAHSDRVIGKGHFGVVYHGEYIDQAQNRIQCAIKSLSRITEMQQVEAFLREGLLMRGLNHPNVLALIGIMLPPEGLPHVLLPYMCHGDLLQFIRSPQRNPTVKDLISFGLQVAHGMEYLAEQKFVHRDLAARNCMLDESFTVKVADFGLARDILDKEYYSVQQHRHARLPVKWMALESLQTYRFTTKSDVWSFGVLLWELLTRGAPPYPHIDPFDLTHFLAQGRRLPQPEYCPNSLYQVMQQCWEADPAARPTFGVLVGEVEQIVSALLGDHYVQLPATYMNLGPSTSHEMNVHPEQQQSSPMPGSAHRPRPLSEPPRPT
# Molecular target: T1, cynomolgus monkey MST1R with N-terminal …
# Test: flow cytometry on transfected HEK293T cells, 2 ug/ml IgG1
# Description: Cells (5×10⁵ cells/well) were incubated with Fab or IgG antibodies at the indicated concentrations in 50 μl FACS buffer (PBS, 5% FCS) for 60 min at 4° C. in round bottom 96-well culture plates (Corning). Cells were washed twice and then incubated with Fluorescein Isothiocyanate (FITC) conjugated detection antibody for 30 min at 4° C. Cells were washed again, resuspended in 0.3 ml FACS buffer and then analyzed by flow cytometry in a Cytomics FC500 (Beckman Coulter, Inc.). Data were analysed via FlowJo software (Tomy digital biology Co., Ltd.). Polyclonal goat anti-hMSP R IgG (R&D systems) or anti-FLAG M2 antibody (Sigma) was used as a positive control and MOR03207 (anti-lysozyme) antibody was used as a negative control.
# FACS-analysis of MST1R ortholog-expressing cells: Human MST1R (cDNA nucleotide sequence is shown as GenBank Accession No: NM_{—}002447.2), cynomolgus monkey MST1R and mouse MST1R (cDNA nucleotide sequence is shown as GeneBank Accession No: NM_{—}009074.1) expression vector containing N-terminal Flag tag (pFLAG-myc-CMV-19, Sigma) were constructed. cDNA encoding cynomolgus monkey MST1R was amplified by PCR using cynomolgus monkey stomach cDNA as a template with forward and reverse primers having nucleotide sequences of SEQ ID NO: 34 and 35, respectively. By sequencing analysis of PCR product, the cynomolgus MST1R ORF nucleotide sequence was identified as shown in SEQ ID NO: 36. The corresponding amino acid sequence was shown in SEQ ID NO: 37. Then human, cynomolgus monkey and mouse MST1R ORF cDNA, excluding signal peptide regions, were amplified using respective forward and reverse primers having nucleotide sequences of SEQ ID NO: 38 and 39 (human), 40 and 41 (cynomolgus monkey), and 42 and 43 (mouse) with appropriate cloning sites and then cloned into pFLAG-myc-CMV-19. An amplified human MST1R fragment encodes amino acids corresponding to GenBank Accession No: NP_{—}002438.2 (SEQ ID NO: 45). A Mouse MST1R fragment encodes amino acids corresponding to GenBank Accession No: NP_{—}033100.1 (SEQ ID NO: 47) except for those amino acid differences at positions: 688 (Leu to Pro), 713 (Ile to Val), 714 (Ala to Gly) and 719 (Ala to Val). These expression vectors were transfected into HEK293T cells. For FACS-analysis, cells were incubated with 2 μg/ml primary antibodies followed by incubation with FITC-labeled secondary antibody as described above.
row,binding result,Binder
1,binds,"MOR07926 (human IgG1) (antibody, V domains shown) VH: QVQLVESGGGLVQPGGSLRLSCAASGFTFNSYSMSWVRQAPGKGLEWVSYISSRSSTTYYADSVKGRFTISRDNSKNTLYLQMNSLRAEDTAVYYCARGYFHGMDYWGQGTLVTVSS VL: DIVLTQSPATLSLSPGERATLSCRASQSVSFDYLGWYQQKPGQAPRLLIYGASNRATGVPARFSGSGSGTDFTLTISSLEPEDFATYYCFQALIMPFTFGQGTKVEIKR"
2,binds,"MOR07924 (human IgG1) (antibody, V domains shown) VH: QVQLVESGGGLVQPGGSLRLSCAASGFTFNSYSMSWVRQAPGKGLEWVSYISSRSSTTYYADSVKGRFTISRDNSKNTLYLQMNSLRAEDTAVYYCARGYFHGMDYWGQGTLVTVSS VL: DIVLTQSPATLSLSPGERATLSCRASQSVSFDYLGWYQQKPGQAPRLLIYGASNRATGVPARFSGSGSGTDFTLTISSLEPEDFATYYCQQYNINPFTFGQGTKVEIKR"
3,binds,"MOR07692 (human IgG1) (antibody, V domains shown) VH: QVQLVESGGGLVQPGGSLRLSCAASGFTFNSYSMSWVRQAPGKGLEWVSYISSRSSTTYYADSVKGRFTISRDNSKNTLYLQMNSLRAEDTAVYYCARGYFHGMDYWGQGTLVTVSS VL: DIVLTQSPATLSLSPGERATLSCRASQSVSFDYLGWYQQKPGQAPRLLIYGASNRATGVPARFSGSGSGTDFTLTISSLEPEDFATYYCQQYYNMPYTFGQGTKVEIKR"

# Further lines, the binder ahead of its results:
row,Binder,binding result
1,"MOR07923 (human IgG1) (antibody, V domains shown) VH: QVQLVESGGGLVQPGGSLRLSCAASGFTFNSYSMSWVRQAPGKGLEWVSYISSRSSTTYYADSVKGRFTISRDNSKNTLYLQMNSLRAEDTAVYYCARGYFHGMDYWGQGTLVTVSS VL: DIVLTQSPATLSLSPGERATLSCRASQSVSFDYLGWYQQKPGQAPRLLIYGASNRATGVPARFSGSGSGTDFTLTISSLEPEDFATYYCFQYLIVPFTFGQGTKVEIKR",binds
2,"MOR07925 (human IgG1) (antibody, V domains shown) VH: QVQLVESGGGLVQPGGSLRLSCAASGFTFNSYSMSWVRQAPGKGLEWVSYISSRSSTTYYADSVKGRFTISRDNSKNTLYLQMNSLRAEDTAVYYCARGYFHGMDYWGQGTLVTVSS VL: DIVLTQSPATLSLSPGERATLSCRASQSVSFDYLGWYQQKPGQAPRLLIYGASNRATGVPARFSGSGSGTDFTLTISSLEPEDFATYYCLQYFNPPHTFGQGTKVEIKR",binds

# — patent US20120034215A1 (Daiichi Sankyo, published 2012)
